Laboratory results as given in publication PMC5845890, “Pathophysiological Consequences of Neuronal α-Synuclein Overexpression: Impacts on Ion Homeostasis, Stress Signaling, Mitochondrial Integrity, and Electrical Activity” (Frontiers in Molecular Neuroscience, 2018).

Target: T1, Soluble domain (residues 1-209) of human Bcl-Xl (human, UniProt Q07817-1 1-209)
T1 construct: residues left at the N-terminus after thrombin cleavage of the 6XHis tag; Bcl-Xl, human, soluble domain, residues 1-209; 15N-labelled for the titration with peptides; BMRB 19521 (Follis et al., 2014) was used only for the chemical shift assignment; also called 15N-Bcl-Xl; source: BL21 E. coli (pET15b), purified (nickel-sepharose, thrombin digestion, reverse IMAC, size exclusion chromatography); …
Assay: NMR titration; 15N-Bcl-Xl with synthetic α-Syn (1-26) peptides; 1H-15N HSQC at 298 K; Hepes 25 mM pH 7.0, NaCl 50 mM, 10% D2O, 1 mM DTT; ΔδN against ligand concentration fitted by a single binding model; Kd averaged over residues 94, 120, 134 and 196 of Bcl-Xl
Conditions: both partners purified

T1 sequence (Q07817 other isoform, or with tags, fused parts or gaps): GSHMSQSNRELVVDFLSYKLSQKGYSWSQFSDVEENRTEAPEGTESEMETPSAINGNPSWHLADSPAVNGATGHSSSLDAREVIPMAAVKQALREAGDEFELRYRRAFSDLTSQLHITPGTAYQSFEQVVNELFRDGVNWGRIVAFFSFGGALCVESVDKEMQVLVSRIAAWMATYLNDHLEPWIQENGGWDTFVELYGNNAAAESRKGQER

Kd: 1950 ± 560 µM
B1: N-terminal acetylated alpha-synuclein peptide 1-26 (peptide)
peptide: not shown
modifications: acetyl group at the N-terminus
notes: α-Synuclein, human, residues 1-26; also called α-Syn (1-26) peptide with an acetyl group at the N-terminus; source: synthetic peptide (Fmoc solid-phase synthesis, reversed-phase HPLC)
